Test results from patent publication US20220184120A1.

Target: full-length MUC1 expressed on HCT-116 cells (cleavage resistant single cell clone) (Homo sapiens (Human)) (UniProt P15941)
Test: flow cytometry, HCT-MUC1-41TR cells (FIG. 36D)

VU4H5 commercially available mouse monoclonal anti-MUC1 tandem repeat antibody
percent positive cells: 95%
